Assay [1] has as its target T1, human BDCA2 (full-length, cell surface) (human, UniProt Q8WTT0 1-213).
T1 construct: also called huBDCA2; surface human BDCA2
T1 sequence: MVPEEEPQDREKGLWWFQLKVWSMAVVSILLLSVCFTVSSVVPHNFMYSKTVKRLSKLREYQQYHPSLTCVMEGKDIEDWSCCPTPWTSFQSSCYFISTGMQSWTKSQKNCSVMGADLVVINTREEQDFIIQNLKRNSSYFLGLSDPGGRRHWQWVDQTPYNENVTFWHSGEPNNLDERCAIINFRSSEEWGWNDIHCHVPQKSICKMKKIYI
The assay can be described thus: flow cytometry, Alexa647-labelled BIIB059 on pDCs in human whole blood, on ice. As for the experimental part:
(§1) Cynomolgus monkey (Toxikon, Inc, Bedford, Mass.) or human peripheral blood (Biogen Idec) were collected in sodium heparin collection tubes and maintained at room temperature. A FACS staining antibody cocktail for identifying pDCs was added to each whole blood aliquot, incorporating CD20, CD14, CD123 and HLA-DR antibodies. […] Blood was incubated on ice, protected from light, for 30 min. […] After a 10-15 min. incubation at room temperature, samples were centrifuged at 1400 rpm for 5 min. The supernatant was decanted, leaving only a pellet of white blood cells (WBC). Each WBC pellet was washed with 5 mL of FACS buffer (1% BSA+0.002% NaAzide+1 mM CaCl₂+1 mM MgCl₂ in PBS), and centrifuged at 1400 rpm for 5 min. The supernatant was decanted, and each WBC pellet was resuspended in 200 μL of FACS buffer and transferred to a 96-well round bottom plate (Fisher Scientific). The plate was centrifuged at 1400 rpm for 5 min. The supernatant was dumped out of the plate, and each WBC pellet was washed with 200 μL of FACS buffer. The plate was centrifuged at 1400 rpm for 5 min, and the supernatant dumped out of the plate. Following washing (as above), WBCs were resuspended in 200 μL of 1% paraformaldehyde (PFA) in PBS, and fixed at 4° C. overnight, protected from light. […] Each WBC pellet was resuspended in 250 μL of FACS buffer and fluorescence intensity measured on a LSRII 4-color FACS machine. […]
A general note: Flow cytometry measures light scatter and fluorescence of single cells or particles in a stream.

For assay [2], the target named is T2, cynomolgus monkey BDCA2 (full-length, cell surface, E73 SNP form) (cynomolgus monkey, UniProt Q8WTT0 1-213 (human entry)).
T2 construct: also called cyno BDCA2; surface cynomolgus monkey BDCA2
T2 chain: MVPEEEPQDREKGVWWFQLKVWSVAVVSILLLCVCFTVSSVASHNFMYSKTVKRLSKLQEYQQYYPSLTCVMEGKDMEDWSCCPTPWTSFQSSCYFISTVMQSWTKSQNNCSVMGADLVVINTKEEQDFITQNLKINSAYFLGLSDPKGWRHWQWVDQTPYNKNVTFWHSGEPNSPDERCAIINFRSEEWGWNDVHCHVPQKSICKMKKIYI
Description: flow cytometry, whole blood pDCs of cynomolgus monkey donor 3, anti-human IgG PE secondary. As for the experimental part: (§2) The MFI of PE was calculated in FlowJo software, and the percent of maximal binding, using the 40 μg/mL point as 100%, was computed. Each line represents one individual cynomolgus monkey, for a total of twelve cynomolgus monkeys, and graphed using GraphPad Prism software (four-parameter nonlinear regression curve fit of log-transformed data). Staining was repeated once a week for three weeks total.
(§3) The maximal values were taken from the values at the plateau in each assay (FIGS. 24 and 25).
(§4) MFI of PE was calculated with FlowJo software, and EC50 curves were generated in GraphPad Prism software.

For assay [3], the target named is T2, cynomolgus monkey BDCA2 (full-length, …). The assay can be described thus: flow cytometry, whole blood pDCs of cynomolgus monkey donor 6, anti-human IgG PE secondary. How it is done: as §2, §3, §4
The target is the same in assay [4]. Description: flow cytometry, whole blood pDCs of cynomolgus monkey donor 11, anti-human IgG PE secondary. How it is done:
as §3, §4

The target is the same in assay [5]. The assay can be described thus: flow cytometry, Alexa647-labelled BIIB059 on pDCs in cynomolgus monkey whole blood, on ice. How it is done: as §1
Assay [6] shares this target. Description: indirect method: flow cytometry of pDCs in cynomolgus whole blood, unlabelled BIIB059 titrated, free BDCA2 detected with the competitor BIIB059-A647 at 10 ug/mL [panel Cynomolgus monkey 6]. How it is done: The MFI of PE (open symbols, graphed on the left y-axis) or A647 (closed symbols, graphed on the right y-axis) was calculated in FlowJo software, and graphed using GraphPad Prism software (four-parameter nonlinear regression curve fit of log-transformed data).

B1: BIIB059 (antibody, human IgG1, kappa)
heavy: not shown
light: DIQLTQSPSSLSASVGDRVTITCKASQSVDYDGDSYMNWYQQKPGKAPKLLIYAASTLESGVPSRFSGSGSGTDFTLTISSLQPEDFATYYCQQANEDPRTFGQGTKVEIKRTVAAPSVFIFPPSDEQLKSGTASVVCLLNNFYPREAKVQWKVDNALQSGNSQESVTEQDSKDSTYSLSSTLTLSKADYEKHKVYACEVTHQGLSSPVTKSFNRGEC
notes: Humanized IgG1 kappa, mature chains; in some assays labelled with Alexa647; also called hu24F4 H4/L1 C95A; H4-L1-C95A (YL751/YL746)
The term EC50 denotes the midpoint of the concentration-response curve. Regarding B1, the EC50 in assay [1] came out at 1.44 µg/mL; in assay [2], 0.95 µg/mL; in assay [3] it was 1.3 µg/mL; in assay [4] it was 1.4 µg/mL; in assay [5], 0.944 µg/mL. For the same molecule, in assay [6], the “IC50 (read off the curve)” value was ~1 µg/mL.
